Results as given in patent US20140274782A1, “AFFINITY REAGENTS AND METHODS FOR DETECTION, PURIFICATION, AND PROTEOMIC ANALYSIS OF METHYLATED PROTEINS” (The Board of Trustees of the Leland Stanford Junior …, priority 2013, published 2014).

Key:
[1] = test system: 3×MBT domain of L3MBTL1; test: Triple SILAC pull-down, 3xMBT/3xMBTD355N ratio (cytoplasmic, nuclear and chromatin fractions of 293T cells); assay type: binding, human; conditions: for 3xMBT/D355N UNC Heavy: experiment with UNC0638 in heavy SILAC media; for 3xMBT/D355N UNC Light: experiment with UNC0638 in light SILAC media;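 for all read-outs here: proteins quantified with MaxQuant, requiring at least two unique peptides and quantification in both label directions, normalized to the mean of proteins from a digested loading control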
[2] = target: T1, G9a and GLP (Homo sapiens, UniProt Q96KQ7+Q9H9B1); test: Triple SILAC pull-down after UNC0638 treatment of 293T cells, DMSO/UNC0638 ratio of protein captured by 3×MBT; assay type: cell-based; conditions: for Relative to UNC0638 UNC Heavy: UNC0638 in heavy SILAC media; for Relative to UNC0638 UNC Light: UNC0638 in light SILAC media; for Relative to UNC0638 Average: average of UNC Light and UNC Heavy experiments; for Candidate G9a/GLP target: reduced association with 3xMBT after UNC0638 treatment;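 for all read-outs here: mass spectrometry (Q-Exactive) SILAC quantitation, DMSO/UNC0638 ratio computed after subtracting 3×MBTD355N mutant pull-down background, only proteins with at least twofold 3×MBT over mutant signal considered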
T1 construct: endogenous in cells; host or cells: HEK 293T
T1 sequence (Q96KQ7 2-1210 limits assumed): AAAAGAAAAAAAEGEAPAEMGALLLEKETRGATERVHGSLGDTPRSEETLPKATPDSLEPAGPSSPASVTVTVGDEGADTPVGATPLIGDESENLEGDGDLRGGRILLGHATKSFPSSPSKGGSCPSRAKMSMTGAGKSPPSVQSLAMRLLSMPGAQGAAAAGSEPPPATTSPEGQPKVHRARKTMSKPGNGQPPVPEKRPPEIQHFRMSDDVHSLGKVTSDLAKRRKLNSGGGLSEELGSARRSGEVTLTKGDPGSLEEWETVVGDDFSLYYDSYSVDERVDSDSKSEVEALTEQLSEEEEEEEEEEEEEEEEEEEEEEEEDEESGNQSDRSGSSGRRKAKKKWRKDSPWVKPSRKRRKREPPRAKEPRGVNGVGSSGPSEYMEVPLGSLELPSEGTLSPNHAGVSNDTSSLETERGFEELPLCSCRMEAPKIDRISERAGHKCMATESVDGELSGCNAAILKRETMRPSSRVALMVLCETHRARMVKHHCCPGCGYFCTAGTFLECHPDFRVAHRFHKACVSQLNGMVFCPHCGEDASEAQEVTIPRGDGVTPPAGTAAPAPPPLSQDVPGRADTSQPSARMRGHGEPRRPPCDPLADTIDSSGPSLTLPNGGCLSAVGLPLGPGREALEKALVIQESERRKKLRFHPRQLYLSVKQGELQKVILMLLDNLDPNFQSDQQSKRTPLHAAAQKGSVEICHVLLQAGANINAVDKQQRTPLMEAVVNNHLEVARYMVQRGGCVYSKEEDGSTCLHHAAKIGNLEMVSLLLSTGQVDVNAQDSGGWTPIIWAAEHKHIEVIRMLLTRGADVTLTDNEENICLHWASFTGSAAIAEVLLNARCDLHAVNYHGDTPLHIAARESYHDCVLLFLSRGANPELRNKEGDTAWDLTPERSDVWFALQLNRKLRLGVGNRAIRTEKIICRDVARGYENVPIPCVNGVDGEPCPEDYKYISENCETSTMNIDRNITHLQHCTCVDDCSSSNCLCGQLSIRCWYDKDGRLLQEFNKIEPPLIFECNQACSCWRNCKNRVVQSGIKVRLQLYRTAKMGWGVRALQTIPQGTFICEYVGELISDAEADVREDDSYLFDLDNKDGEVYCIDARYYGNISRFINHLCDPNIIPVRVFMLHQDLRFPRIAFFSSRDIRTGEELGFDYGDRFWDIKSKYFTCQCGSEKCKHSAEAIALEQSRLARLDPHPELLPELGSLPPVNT
T1 sequence (Q9H9B1 2-1298 limits assumed): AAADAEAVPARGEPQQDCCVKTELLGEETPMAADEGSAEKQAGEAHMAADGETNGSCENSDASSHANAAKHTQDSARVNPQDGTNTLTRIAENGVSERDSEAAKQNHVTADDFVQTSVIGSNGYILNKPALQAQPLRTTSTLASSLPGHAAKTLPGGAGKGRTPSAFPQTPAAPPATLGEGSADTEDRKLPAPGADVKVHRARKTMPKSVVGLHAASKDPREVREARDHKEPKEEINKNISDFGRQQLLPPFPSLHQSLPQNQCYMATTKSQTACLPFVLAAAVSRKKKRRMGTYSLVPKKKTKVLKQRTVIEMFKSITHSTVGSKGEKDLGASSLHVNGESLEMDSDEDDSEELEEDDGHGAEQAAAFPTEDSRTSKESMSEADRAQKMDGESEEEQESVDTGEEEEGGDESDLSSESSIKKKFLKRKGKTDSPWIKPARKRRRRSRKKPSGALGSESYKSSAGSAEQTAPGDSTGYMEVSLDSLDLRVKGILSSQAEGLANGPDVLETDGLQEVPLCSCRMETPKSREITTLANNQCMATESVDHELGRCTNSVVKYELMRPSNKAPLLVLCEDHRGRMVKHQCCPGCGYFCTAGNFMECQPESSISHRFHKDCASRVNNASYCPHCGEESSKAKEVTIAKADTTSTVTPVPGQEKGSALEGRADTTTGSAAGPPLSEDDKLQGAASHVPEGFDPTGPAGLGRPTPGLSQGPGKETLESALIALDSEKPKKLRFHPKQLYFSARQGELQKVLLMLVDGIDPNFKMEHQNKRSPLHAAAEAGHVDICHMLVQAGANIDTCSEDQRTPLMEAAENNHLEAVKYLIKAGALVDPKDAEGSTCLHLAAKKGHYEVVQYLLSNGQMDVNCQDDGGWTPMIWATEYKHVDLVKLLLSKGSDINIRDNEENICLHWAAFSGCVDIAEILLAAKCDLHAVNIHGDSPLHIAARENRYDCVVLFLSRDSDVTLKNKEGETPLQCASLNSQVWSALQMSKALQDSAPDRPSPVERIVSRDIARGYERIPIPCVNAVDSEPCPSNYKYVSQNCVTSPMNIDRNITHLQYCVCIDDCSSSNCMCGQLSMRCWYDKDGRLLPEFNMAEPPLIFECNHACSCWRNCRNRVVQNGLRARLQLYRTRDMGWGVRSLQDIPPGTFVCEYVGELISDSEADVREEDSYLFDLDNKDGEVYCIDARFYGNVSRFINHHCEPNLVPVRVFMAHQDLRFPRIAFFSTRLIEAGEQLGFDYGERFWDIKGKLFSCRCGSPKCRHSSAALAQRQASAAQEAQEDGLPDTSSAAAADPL

[3] = SILAC ratio, pull-down 3xMBT vs 3xMBTD355N
[4] = SILAC ratio DMSO/UNC0638 of protein pulled down with 3xMBT
[5] = SILAC ratio 3xMBT vs 3xMBTD355N pull-down, 293T cells, all values in log base 2
[6] = SILAC ratio DMSO relative to UNC0638, pull-down with 3xMBT, all values in log base 2

Substance | Relative to UNC0638 UNC Heavy [2, 4] [log base 2] | Relative to UNC0638 UNC Light [2, 4] [log base 2] | Relative to UNC0638 Average [2] [log base 2] | Candidate G9a/GLP target [2] | Relative to UNC0638 UNC Heavy [2, 6] [log base 2] | Relative to UNC0638 UNC Light [2, 6] [log base 2] | Relative to UNC0638 Average ([2]; all values in log base 2) [log base 2] | 3xMBT/D355N UNC Heavy [1, 3] [log base 2] | 3xMBT/D355N UNC Light [1, 3] [log base 2] | 3xMBT/D355N UNC Heavy [1, 5] [log base 2] | 3xMBT/D355N UNC Light [1, 5] [log base 2]
NSUN2 | 4.51 | 0.18 | 2.35 | √✓ | – | – | – | 0.25 | 2.00 | – | –
NUMA1 | 0.90 | −0.32 | 0.29 | – | – | – | – | 0.83 | 3.33 | – | –
PCBP1 | 0.11 | 0.19 | 0.15 | – | – | – | – | 2.16 | 2.49 | – | –
PPP1CA | – | – | – | – | 1.15 | −1.83 | −0.34 | – | – | 1.51 | 0.12
PRKDC | 0.21 | 0.95 | 0.58 | ✓ | – | – | – | 1.96 | 2.39 | – | –
PRPF8 | 0.11 | 0.17 | 0.14 | – | – | – | – | 2.51 | 2.50 | – | –
PSME3 | 0.62 | −0.01 | 0.31 | – | – | – | – | 1.70 | 1.89 | – | –
RAD50 | – | – | – | – | 0.15 | −0.14 | 0.01 | – | – | 2.20 | 2.08
RDBP | – | – | – | – | 0.32 | −0.12 | 0.10 | – | – | 2.37 | 2.82
RPTOR | – | – | – | – | 0.54 | −0.81 | −0.14 | – | – | 1.86 | 1.58
SEC24C | – | – | – | – | 0.21 | −0.05 | 0.08 | – | – | 2.58 | 2.17
SH3GL1 | 0.60 | −0.23 | 0.19 | – | – | – | – | 1.99 | 2.38 | – | –
SMARCA5 | 0.47 | 0.32 | 0.39 | ✓ | – | – | – | 2.49 | 2.61 | – | –

The next lines start with results.

Relative to UNC0638 UNC Heavy [2, 4] [log base 2] | Relative to UNC0638 UNC Light [2, 4] [log base 2] | Relative to UNC0638 Average [2] [log base 2] | Candidate G9a/GLP target [2] | Relative to UNC0638 UNC Heavy [2, 6] [log base 2] | Relative to UNC0638 UNC Light [2, 6] [log base 2] | Relative to UNC0638 Average ([2]; all values in log base 2) [log base 2] | Substance | 3xMBT/D355N UNC Heavy [1, 3] [log base 2] | 3xMBT/D355N UNC Light [1, 3] [log base 2] | 3xMBT/D355N UNC Heavy [1, 5] [log base 2] | 3xMBT/D355N UNC Light [1, 5] [log base 2]
0.24 | 0.11 | 0.17 | – | – | – | – | NPM1 | 1.24 | 1.27 | – | –
0.20 | 0.04 | 0.12 | – | – | – | – | NUDT21 | 3.65 | 3.15 | – | –
0.04 | 0.26 | 0.15 | – | – | – | – | PABPC1 | 2.91 | 3.44 | – | –
0.17 | 0.15 | 0.16 | – | – | – | – | PSIP1 | 2.72 | 2.92 | – | –
0.33 | 0.25 | 0.29 | – | – | – | – | PTBP1 | 2.61 | 3.23 | – | –
0.71 | 0.21 | 0.46 | ✓ | – | – | – | RECQL | 3.43 | 5.03 | – | –
0.32 | 0.26 | 0.29 | – | – | – | – | RFC4 | 1.95 | 1.80 | – | –
– | – | – | – | 0.22 | −0.01 | 0.11 | SNRNP70 | – | – | 3.26 | 3.57
0.19 | 0.26 | 0.22 | – | – | – | – | SNRNP200 | 2.08 | 3.14 | – | –
